Biological target: LDL receptor (human), on cells (human) (UniProt P01130)
Test: cell-based or functional assay

## HDL fraction of HCV-infected serum (HCV-HDL)
  Endocytosis of 5 µg DiI-labeled fraction, mean fluorescence (log scale) (mean fluorescence (log scale)): 1.88

## LDL fraction of HCV-infected serum (HCV-LDL)
  Endocytosis of 5 µg DiI-labeled fraction, mean fluorescence (log scale) (mean fluorescence (log scale)): 9.98

## VLDL fraction of HCV-infected serum (HCV-VLDL)
  Endocytosis of 5 µg DiI-labeled fraction, mean fluorescence (log scale) (mean fluorescence (log scale)): 8.49

## high density lipoprotein (HDL) from normal serum
  competitive inhibition of endocytosis of HCV by HepG2, G4 and E11 cells: > 200 µg/mL

## low density lipoprotein (LDL) from normal serum, P04114 1-4563
  Uptake of LDL by cultured cells, mean fluorescence (G4, lipoprotein deficient medium, DiI-LDL) (mean fluorescence): 16
  Uptake of LDL by cultured cells, mean fluorescence (G4, routine medium, DiI-LDL) (mean fluorescence): 4
  Uptake of LDL by cultured cells, mean fluorescence (HepG2, routine medium, DiI-LDL) (mean fluorescence): 16

Source: US20110229482A1, “Method of inhibiting infection by HCV, other flaviviridae viruses, and any other virus that complexes to low density lipoprotein or to very low density lipoprotein in blood by preventing viral entry into a cell” (priority 2000, published 2011)
